The Kd is the constant that tells how readily two partners part at equilibrium.

Among the targets are HLA-A*03:01; HLA-A*30:01; HLA-A*31:01; HLA-A*33:01; HLA-A*68:01.
What all share (experiment): IEDB peptide-MHC binding, purified MHC/competitive/radioactivity; filed as Kd, often an IC50 or EC50 that approximates it; ≥ and ≤ were set here for values at or beyond the usual limits of such assays
Common to all, as to conditions: source organism: Toxoplasma gondii

In the case of AVVSLLRLLK, the Kd in the test with HLA-A*03:01 was 17 nM; with HLA-A*30:01, 8.1 nM; in the test with HLA-A*31:01 it was 1300 nM; in the test with HLA-A*33:01 it was 1100 nM; in the test with HLA-A*68:01, 94 nM.

As for STFWPCLLR, the dissociation constant (Kd) in the test with HLA-A*03:01 came to 22 nM; with HLA-A*30:01, 1270 nM; in the test with HLA-A*31:01, 1.2 nM; with HLA-A*33:01, 3.4 nM; in the test with HLA-A*68:01, 0.97 nM.
